Experiments:
[1] = target: T1, acetylcholine esterase (AChE) (Electrophorus electricus, UniProt O42275); test: AChE-ISFET (AChE-FET) response to substrate and inhibitor in PBS; type: biochemical, electric eel; details: dissolved in PBS, in comparison to ACh
T1 construct: purchased Sigma C1682
Description: In this experiment, the ISFET has undergone covalent bonding with acetylcholine-esterase using the aforementioned cyanuryl chloride techniques. As shown in the figure, the response of the ACHE-ISFET to various doses of acetylcholine (graph I). Acetylcholine was manually applied into a solution of 5 ml Phosphate Saline Buffer (PBS) in which the ISFET resided.
Both carbamylcholine and acetylcholine have been dissolved in phosphate buffered saline (PBS).
Acetylcholine esterase (C1682, taken from electric eel), acetylcholine-iodine, acetylcholine-chloride, cyanuric chloride and eserine (physostigmine), ere purchased from Sigma and were used as supplied.
ISFETs were first rinsed with isopropanol and dried under Argon. A is solution of 0.1M cyanuric chloride (in dichloromethane) was prepared and then applied to the Al2O3 gate surface of the ISFET. ISFETs were then dried with Argon and heated at 70° C. for 15 minutes, then rinsed again with dichloromethane and dried under Argon. […]
The resulting hybrid system of Example 3, was immersed in a PBS solution as a background electrolyte for the measurements. […] The current between source and drain electrodes (Ids) was measured, while potential between drain and source electrodes (Vds), and between the gate and source electrodes (Vgs) were kept constant at 0.1V and 0.45V, respectively, recording the electrical activity occurring at the gate surface.

CC(=O)OCC[N+](C)(C)C = test: purified protein, by the assay type; details: other: surface-bound AChE, Lineweaver-Burk plot, DTNB 5×10^−5 M
Description: In this test, the enzyme activity is measured by following the increase of yellow color produced from the reaction of thiocholine with the DTNB ion (Sawada, O., Ishida, T., Kihachiro, H., J. Biochem., 129, 2001, 899-907).
The reaction of acetylthiocholine-iodide with DTNB (5,5′-dithio-bis (2-nitrobenzoic acid) marker was conducted by immersing the solid substrate containing the immobilized ACHE, obtained above, in an optical cell compatible with the spectrophotometer. The rate of color production was measure at 410 nm. All of the investigated solutions were freshly prepared: ACh in phosphate buffer of pH=8.0 and the DTNB dissolved in PBS buffer of pH=6.5.
The enzyme activity was probed by two methods: Ex-situ and In-situ experiments. In the Ex-situ experiments the solution of the marker containing ACh is measured before and after the exposure to the immobilized ACHE substrate. The optical cell contains a solution composed of 2 ml of 2.5.10^−3 M ACh and 2 ml of 1.10^−4 M DTNB. The optical spectra were recorded before and after 15 min of the immobilized enzyme solution insertion to this optical cell. In the In-situ experiments, the substrate is immersed in the optical cell containing various concentrations of the DTNB/ACh solution. The hydrolysis product was followed in two ways: (a) by recording the spectra in fixed time interval and (b) by the time course mode at 410 nm. […]

T1 sequence (O42275 24-633): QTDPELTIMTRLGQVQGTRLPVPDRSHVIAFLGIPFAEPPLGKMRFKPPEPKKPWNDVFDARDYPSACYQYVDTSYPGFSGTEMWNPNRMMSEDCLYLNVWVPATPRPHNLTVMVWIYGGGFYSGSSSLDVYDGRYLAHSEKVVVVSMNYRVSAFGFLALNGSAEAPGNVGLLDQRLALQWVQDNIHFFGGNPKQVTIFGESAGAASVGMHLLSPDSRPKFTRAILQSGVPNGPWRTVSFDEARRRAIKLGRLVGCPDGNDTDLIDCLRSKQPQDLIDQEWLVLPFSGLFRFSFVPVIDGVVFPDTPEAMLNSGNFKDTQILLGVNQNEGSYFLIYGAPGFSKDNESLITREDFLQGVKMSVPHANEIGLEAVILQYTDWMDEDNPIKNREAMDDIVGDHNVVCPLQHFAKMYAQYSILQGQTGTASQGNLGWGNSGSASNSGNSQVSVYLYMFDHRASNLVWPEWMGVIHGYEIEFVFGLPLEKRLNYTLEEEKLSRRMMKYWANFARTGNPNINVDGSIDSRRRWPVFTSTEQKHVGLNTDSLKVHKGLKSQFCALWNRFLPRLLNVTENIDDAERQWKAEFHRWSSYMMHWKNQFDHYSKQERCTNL

Compound | response of AChE-ISFET on application to the solution [1] | Km (CC(=O)OCC[N+](C)(C)C) [µM] | Vmax (CC(=O)OCC[N+](C)(C)C) [M/s]
C[N+](C)(C)CCOC(N)=O.[Cl-] [Carbamylcholine] | no response | – | –
surface-bound AChE (Electrophorus electricus) | – | 310 | 1e-07

Reference: patent US20060102935A1, “Transistor-based biosensors having gate electrodes coated with receptor molecules” (priority 2002, published 2006)
